# Assay results published in US20230279137A1 (EVOTEC INTERNATIONAL, published 2023).
# Residue numbers refer to the chain shown, from its start.
# B1: agonistic anti-CD40 antibody CP870,893 (antibody, human IgG2, kappa)
# heavy: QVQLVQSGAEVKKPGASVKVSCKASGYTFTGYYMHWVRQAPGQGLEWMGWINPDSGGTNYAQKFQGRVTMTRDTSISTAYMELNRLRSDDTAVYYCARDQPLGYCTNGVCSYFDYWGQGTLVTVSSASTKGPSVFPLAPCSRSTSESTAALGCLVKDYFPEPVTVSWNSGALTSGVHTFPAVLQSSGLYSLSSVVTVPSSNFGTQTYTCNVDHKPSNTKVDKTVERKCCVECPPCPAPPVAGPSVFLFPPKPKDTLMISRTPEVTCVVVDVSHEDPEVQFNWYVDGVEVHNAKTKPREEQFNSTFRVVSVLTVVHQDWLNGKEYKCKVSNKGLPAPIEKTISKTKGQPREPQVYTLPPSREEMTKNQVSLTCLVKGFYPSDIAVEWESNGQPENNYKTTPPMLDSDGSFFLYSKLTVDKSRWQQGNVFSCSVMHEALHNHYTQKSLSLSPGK
# light: DIQMTQSPSSVSASVGDRVTITCRASQGIYSWLAWYQQKPGKAPNLLIYTASTLQSGVPSRFSGSGSGTDFTLTISSLQPEDFATYYCQQANIFPLTFGGGTKVEIKRTVAAPSVFIFPPSDEQLKSGTASVVCLLNNFYPREAKVQWKVDNALQSGNSQESVTEQDSKDSTYSLSSTLTLSKADYEKHKVYACEVTHQGLSSPVTKSFNRGEC
# B2: IFA1 (antibody, human IgG2, kappa)
# light: DIQMTQSPSSVSASVGDRVTITCRASQGIYSWLAWYQQKPGKAPNLLIYTASTLQSGVPSRFSGSGSGTDFTLTISSLQPEDFATYYCQQANIFPLTFGGGTKVEIKRTVAAPSVFIFPPSDEQLKSGTASVVCLLNNFYPREAKVQWKVDNALQSGNSQESVTEQDSKDSTYSLSSTLTLSKADYEKHKVYACEVTHQGLSSPVTKSFNRGECAEAAAKEAAAKAMSYNLLGFLQRSSNFQCQKLLWQLNGRLEYCLKDRMNFDIPEEIKQLQQFQKEDAALTIYEMLQNIFAIFRQDSSSTGWNETIVENLLANVYHQINHLKTVLEEKLEKEDFTRGKLMSSLHLKRYYGRILHYLKAKEYSHCAWTIVRVEILRNFYFINRLTGYLRN
# heavy: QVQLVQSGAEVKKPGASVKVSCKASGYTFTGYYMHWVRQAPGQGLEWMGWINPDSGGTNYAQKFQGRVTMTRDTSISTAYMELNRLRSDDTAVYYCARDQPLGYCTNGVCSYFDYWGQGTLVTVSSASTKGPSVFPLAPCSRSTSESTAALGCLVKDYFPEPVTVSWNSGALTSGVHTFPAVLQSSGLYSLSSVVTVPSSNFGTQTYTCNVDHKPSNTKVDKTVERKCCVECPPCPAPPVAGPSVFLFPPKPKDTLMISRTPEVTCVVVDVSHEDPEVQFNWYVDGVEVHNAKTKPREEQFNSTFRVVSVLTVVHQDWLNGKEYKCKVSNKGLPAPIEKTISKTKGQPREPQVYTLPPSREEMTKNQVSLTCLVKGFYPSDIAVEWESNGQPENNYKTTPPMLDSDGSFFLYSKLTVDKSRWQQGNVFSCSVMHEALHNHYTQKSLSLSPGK
# B3: IFA20 (antibody, human IgG2, kappa)
# light: DIQMTQSPSSVSASVGDRVTITCRASQGIYSWLAWYQQKPGKAPNLLIYTASTLQSGVPSRFSGSGSGTDFTLTISSLQPEDFATYYCQQANIFPLTFGGGTKVEIKRTVAAPSVFIFPPSDEQLKSGTASVVCLLNNFYPREAKVQWKVDNALQSGNSQESVTEQDSKDSTYSLSSTLTLSKADYEKHKVYACEVTHQGLSSPVTKSFNRGECAEAAAKEAAAKAAEAAAKEAAAKAMSYNLLGFLQRSSNFQSQKLLWQLNGRLEYCLKDRMNFDIPEEIKQLQQFQKEDAALTIYEMLQNIFAIFRQDSSSTGWNETIVENLLANVYHQINHLKTVLEEKLEKEDFTRGKLMSSLHLKRYYGRILHYLKAKEYSHCAWTIVRVEILRNFYFINRLTGYLRN
# heavy: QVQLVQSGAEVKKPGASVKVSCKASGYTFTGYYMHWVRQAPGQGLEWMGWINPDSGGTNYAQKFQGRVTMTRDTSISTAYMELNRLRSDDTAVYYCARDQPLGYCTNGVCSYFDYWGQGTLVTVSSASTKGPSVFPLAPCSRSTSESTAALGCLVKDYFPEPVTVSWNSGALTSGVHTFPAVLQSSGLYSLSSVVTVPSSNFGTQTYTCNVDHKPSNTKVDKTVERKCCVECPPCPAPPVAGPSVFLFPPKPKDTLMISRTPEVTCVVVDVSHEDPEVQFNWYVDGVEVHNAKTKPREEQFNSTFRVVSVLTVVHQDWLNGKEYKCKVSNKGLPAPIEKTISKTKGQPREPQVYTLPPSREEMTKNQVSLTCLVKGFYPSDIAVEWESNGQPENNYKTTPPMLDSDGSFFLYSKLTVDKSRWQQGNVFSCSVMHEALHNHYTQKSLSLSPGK
# B4: IFA2 (antibody, human IgG2, kappa)
# light: B2 light with C243S
# heavy: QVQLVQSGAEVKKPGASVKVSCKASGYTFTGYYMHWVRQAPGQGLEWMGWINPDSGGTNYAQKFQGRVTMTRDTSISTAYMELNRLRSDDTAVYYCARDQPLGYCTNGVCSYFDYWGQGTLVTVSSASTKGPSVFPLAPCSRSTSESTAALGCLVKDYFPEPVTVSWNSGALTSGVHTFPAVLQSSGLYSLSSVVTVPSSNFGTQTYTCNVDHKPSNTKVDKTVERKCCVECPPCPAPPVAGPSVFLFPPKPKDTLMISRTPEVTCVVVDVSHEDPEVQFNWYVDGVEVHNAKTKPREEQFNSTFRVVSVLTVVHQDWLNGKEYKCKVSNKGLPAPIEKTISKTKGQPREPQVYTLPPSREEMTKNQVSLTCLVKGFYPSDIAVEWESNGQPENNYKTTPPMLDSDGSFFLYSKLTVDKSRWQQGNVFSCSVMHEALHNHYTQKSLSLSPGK
# B5: IFA8 (antibody, human IgG2, kappa)
# heavy: not shown
# light: B1 light
# B6: IFA9 (antibody, human IgG2, kappa)
# heavy: not shown
# light: B1 light
# B7: IFA10 (antibody, human IgG2, kappa)
# heavy: not shown
# light: B1 light
# B8: IFA11 (antibody, human IgG2, kappa)
# heavy: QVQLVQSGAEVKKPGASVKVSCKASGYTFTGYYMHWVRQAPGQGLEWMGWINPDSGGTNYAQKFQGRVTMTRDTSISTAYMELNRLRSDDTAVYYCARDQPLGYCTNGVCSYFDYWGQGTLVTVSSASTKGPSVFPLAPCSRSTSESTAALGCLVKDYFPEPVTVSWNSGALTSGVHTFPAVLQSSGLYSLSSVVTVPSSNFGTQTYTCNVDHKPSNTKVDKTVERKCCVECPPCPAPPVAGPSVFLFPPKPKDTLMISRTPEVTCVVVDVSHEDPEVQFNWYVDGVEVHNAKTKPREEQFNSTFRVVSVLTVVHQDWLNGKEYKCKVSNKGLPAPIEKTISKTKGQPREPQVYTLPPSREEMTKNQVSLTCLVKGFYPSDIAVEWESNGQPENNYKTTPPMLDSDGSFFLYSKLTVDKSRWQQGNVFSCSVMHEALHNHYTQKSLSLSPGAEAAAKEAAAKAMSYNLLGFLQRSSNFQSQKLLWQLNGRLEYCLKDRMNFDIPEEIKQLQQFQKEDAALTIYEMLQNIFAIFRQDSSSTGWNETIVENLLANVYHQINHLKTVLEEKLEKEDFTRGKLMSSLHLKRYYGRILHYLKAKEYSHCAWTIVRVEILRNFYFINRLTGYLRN
# light: B1 light
# B9: IFA12 (antibody, human IgG2, kappa)
# light: DIQMTQSPSSVSASVGDRVTITCRASQGIYSWLAWYQQKPGKAPNLLIYTASTLQSGVPSRFSGSGSGTDFTLTISSLQPEDFATYYCQQANIFPLTFGGGTKVEIKRTVAAPSVFIFPPSDEQLKSGTASVVCLLNNFYPREAKVQWKVDNALQSGNSQESVTEQDSKDSTYSLSSTLTLSKADYEKHKVYACEVTHQGLSSPVTKSFNRGECPAPAMSYNLLGFLQRSSNFQCQKLLWQLNGRLEYCLKDRMNFDIPEEIKQLQQFQKEDAALTIYEMLQNIFAIFRQDSSSTGWNETIVENLLANVYHQINHLKTVLEEKLEKEDFTRGKLMSSLHLKRYYGRILHYLKAKEYSHCAWTIVRVEILRNFYFINRLTGYLRN
# heavy: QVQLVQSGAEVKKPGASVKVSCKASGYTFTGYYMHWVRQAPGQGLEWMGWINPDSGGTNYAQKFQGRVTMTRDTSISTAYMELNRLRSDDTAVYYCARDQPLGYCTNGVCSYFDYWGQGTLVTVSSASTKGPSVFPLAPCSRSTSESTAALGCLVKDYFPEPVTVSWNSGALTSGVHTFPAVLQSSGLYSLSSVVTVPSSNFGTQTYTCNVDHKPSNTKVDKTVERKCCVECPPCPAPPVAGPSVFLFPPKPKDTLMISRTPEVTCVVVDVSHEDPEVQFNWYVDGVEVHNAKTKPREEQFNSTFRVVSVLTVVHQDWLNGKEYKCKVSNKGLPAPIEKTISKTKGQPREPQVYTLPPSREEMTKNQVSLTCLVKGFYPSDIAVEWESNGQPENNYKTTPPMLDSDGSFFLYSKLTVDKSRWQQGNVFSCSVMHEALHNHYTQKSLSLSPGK
# B10: IFA13 (antibody, human IgG2, kappa)
# light: B9 light with C235S
# heavy: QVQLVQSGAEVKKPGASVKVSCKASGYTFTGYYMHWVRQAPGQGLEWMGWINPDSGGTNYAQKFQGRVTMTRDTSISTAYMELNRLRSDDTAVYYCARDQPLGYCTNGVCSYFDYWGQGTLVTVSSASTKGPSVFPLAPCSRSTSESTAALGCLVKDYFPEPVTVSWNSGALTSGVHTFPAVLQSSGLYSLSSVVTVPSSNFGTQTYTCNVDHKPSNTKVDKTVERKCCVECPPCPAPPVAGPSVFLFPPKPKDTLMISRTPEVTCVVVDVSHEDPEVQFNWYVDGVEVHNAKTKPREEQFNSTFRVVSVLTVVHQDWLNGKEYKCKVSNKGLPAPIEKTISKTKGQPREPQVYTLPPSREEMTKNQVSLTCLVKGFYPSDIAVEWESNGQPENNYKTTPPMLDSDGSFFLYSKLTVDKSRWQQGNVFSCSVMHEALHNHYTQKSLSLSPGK
# B11: IFA19 (antibody, human IgG2, kappa)
# light: DIQMTQSPSSVSASVGDRVTITCRASQGIYSWLAWYQQKPGKAPNLLIYTASTLQSGVPSRFSGSGSGTDFTLTISSLQPEDFATYYCQQANIFPLTFGGGTKVEIKRTVAAPSVFIFPPSDEQLKSGTASVVCLLNNFYPREAKVQWKVDNALQSGNSQESVTEQDSKDSTYSLSSTLTLSKADYEKHKVYACEVTHQGLSSPVTKSFNRGECSGGTSGSTSGTGSMSYNLLGFLQRSSNFQSQKLLWQLNGRLEYCLKDRMNFDIPEEIKQLQQFQKEDAALTIYEMLQNIFAIFRQDSSSTGWNETIVENLLANVYHQINHLKTVLEEKLEKEDFTRGKLMSSLHLKRYYGRILHYLKAKEYSHCAWTIVRVEILRNFYFINRLTGYLRN
# heavy: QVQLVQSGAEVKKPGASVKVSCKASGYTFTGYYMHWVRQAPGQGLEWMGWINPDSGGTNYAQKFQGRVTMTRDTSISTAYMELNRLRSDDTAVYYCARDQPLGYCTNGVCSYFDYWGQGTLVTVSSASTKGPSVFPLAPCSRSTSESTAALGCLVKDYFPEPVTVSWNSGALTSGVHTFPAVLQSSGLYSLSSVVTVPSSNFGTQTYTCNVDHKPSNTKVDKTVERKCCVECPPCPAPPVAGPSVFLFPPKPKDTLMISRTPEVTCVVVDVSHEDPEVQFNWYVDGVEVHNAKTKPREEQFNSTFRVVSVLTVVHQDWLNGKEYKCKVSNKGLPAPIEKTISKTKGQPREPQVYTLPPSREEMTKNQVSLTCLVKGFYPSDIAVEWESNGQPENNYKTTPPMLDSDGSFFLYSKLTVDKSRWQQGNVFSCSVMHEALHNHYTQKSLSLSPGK
# B12: IFA42 (antibody, human IgG2, kappa)
# light: DIQMTQSPSSVSASVGDRVTITCRASQGIYSWLAWYQQKPGKAPNLLIYTASTLQSGVPSRFSGSGSGTDFTLTISSLQPEDFATYYCQQANIFPLTFGGGTKVEIKRTVAAPSVFIFPPSDEQLKSGTASVVCLLNNFYPREAKVQWKVDNALQSGNSQESVTEQDSKDSTYSLSSTLTLSKADYEKHKVYACEVTHQGLSSPVTKSFNRGECGGGGSGGGGSGGGGSGGGGSQDPYVKEAENLKKYFNAGHSDVADNGTLFLGILKNWKEESDRKIMQSQIVSFYFKLFKNFKDDQSIQKSVETIKEDMNVKFFNSNKKKRDDFEKLTNYSVTDLNVQRKAIHELIQVMAELSPAAKTGKRKRSQMLFRGRRASQ
# heavy: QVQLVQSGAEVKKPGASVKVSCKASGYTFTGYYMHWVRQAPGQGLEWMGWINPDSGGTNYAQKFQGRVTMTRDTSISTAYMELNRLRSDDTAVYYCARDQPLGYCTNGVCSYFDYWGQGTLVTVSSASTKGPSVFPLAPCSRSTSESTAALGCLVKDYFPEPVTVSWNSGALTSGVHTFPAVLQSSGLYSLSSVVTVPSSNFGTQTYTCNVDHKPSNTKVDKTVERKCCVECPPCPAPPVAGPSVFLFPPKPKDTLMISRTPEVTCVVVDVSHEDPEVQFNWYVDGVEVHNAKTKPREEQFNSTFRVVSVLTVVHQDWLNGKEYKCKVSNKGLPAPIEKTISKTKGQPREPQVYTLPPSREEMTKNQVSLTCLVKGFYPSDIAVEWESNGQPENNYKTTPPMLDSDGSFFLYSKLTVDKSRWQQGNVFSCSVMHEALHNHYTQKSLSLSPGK
# Biological target: T1, human CD40 (human, UniProt P25942 21-277)
# Assay: cell-based or functional assay
# T1 sequence (P25942 21-277): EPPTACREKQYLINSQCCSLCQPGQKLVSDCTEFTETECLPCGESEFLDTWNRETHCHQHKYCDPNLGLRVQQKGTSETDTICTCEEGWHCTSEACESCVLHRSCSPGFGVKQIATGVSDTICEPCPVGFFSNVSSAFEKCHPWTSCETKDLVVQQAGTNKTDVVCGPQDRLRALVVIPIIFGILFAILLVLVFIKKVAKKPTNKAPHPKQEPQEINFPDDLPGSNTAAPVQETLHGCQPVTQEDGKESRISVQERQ
Binder,"EC50 for agonistic CD40, HEK-Blue CD40L cells, experiment of FIG. 3","EC50 on CD40 pathway, HEK-Blue CD40L cells","mean EC50 for agonistic CD40, HEK-Blue CD40L cells"
B1,0.057 µg/mL,0.03 to 0.08 µg/mL,0.048 µg/mL

# Biological target: T1, human CD40
# Assay: cell-based or functional assay
# Remark: another data set of the same source
row,Binder,"CD40 EC50 (ng/mL), NFκB-SEAP reporter in HEK-Blue CD40L cells"
1,B2,74.1 ng/mL
2,B3,182 ng/mL
3,B4,111 ng/mL
4,B5,39.7 ng/mL
5,B6,42.6 ng/mL
6,B7,26.5 ng/mL
7,B8,42.8 ng/mL
8,B9,105 ng/mL
9,B10,192 ng/mL
10,B11,110 ng/mL

# Biological target: T2, human type I IFN receptor on HEK-Blue IFN-α/β cells (human, UniProt P17181 28-557; P48551 27-515)
# T2 sequence (looked up) 1: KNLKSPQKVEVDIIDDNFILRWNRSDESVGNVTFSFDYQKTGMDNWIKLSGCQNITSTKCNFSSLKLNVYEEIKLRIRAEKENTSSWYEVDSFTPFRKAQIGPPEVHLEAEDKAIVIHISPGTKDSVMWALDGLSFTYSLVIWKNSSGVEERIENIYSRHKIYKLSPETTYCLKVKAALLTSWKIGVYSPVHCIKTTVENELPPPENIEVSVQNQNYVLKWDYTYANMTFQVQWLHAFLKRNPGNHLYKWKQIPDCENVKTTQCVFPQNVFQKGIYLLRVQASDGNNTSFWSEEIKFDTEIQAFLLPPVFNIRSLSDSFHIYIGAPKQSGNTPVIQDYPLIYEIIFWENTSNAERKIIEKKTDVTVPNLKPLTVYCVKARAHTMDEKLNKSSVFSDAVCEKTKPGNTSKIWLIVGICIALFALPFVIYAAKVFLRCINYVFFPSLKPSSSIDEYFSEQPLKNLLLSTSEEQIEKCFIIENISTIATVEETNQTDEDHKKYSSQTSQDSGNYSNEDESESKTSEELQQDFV
# T2 sequence (looked up) 2: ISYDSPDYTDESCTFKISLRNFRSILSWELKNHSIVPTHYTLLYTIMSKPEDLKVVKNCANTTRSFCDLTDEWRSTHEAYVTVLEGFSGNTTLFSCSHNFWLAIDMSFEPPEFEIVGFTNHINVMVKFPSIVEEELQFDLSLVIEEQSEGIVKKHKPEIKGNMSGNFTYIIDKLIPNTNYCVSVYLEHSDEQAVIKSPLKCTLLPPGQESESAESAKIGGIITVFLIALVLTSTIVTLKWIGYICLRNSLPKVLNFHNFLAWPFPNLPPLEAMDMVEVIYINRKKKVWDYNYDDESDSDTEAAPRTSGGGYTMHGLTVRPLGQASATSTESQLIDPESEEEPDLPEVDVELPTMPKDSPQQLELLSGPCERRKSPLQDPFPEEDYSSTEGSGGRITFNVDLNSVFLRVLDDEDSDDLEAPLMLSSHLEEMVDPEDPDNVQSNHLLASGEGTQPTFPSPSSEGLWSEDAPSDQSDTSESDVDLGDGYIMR
# Assay: cell-based or functional assay
row,Binder,"IFNβ EC50 (ng/mL), SEAP reporter in HEK-Blue IFN-α/β cells"
1,B2,1.64 ng/mL
2,B3,2.34 ng/mL
3,B4,0.14 ng/mL
4,B5,2.9 ng/mL
5,B6,0.7 ng/mL
6,B7,4.5 ng/mL
7,B8,1.78 ng/mL
8,B9,3.64 ng/mL
9,B10,0.7 ng/mL
10,B11,1.3 ng/mL

# Biological target: T1, human CD40
# Assay: cell-based or functional assay
# Remark: another data set of the same source
row,Binder,"CD40 EC50 (ng/mL), NFκB-SEAP reporter in HEK-Blue CD40L cells"
1,B12,65.6 ng/mL

# Biological target: T3, human IFNγ receptor on HEK-Blue IFN-γ cells (human, UniProt P15260 18-489; P38484 22-337)
# T3 sequence (looked up) 1: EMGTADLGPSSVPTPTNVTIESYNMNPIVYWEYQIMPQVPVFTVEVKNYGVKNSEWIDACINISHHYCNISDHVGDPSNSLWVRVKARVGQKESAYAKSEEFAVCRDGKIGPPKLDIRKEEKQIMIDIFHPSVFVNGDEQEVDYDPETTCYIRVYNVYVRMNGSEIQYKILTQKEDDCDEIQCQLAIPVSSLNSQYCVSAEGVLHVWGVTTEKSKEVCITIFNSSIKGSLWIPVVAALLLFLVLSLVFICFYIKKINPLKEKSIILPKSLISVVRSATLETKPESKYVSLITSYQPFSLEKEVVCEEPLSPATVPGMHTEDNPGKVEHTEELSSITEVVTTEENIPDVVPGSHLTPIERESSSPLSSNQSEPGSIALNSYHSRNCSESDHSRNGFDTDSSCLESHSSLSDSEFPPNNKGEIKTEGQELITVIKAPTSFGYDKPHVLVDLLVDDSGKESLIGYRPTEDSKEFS
# T3 sequence (looked up) 2: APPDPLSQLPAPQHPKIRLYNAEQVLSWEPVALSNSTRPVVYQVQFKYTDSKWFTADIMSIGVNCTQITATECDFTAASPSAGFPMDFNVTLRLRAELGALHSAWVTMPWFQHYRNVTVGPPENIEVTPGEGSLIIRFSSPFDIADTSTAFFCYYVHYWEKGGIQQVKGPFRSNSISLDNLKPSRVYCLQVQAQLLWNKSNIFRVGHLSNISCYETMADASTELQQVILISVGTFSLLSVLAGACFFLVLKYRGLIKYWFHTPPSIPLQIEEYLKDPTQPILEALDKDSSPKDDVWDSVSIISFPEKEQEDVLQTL
# Assay: cell-based or functional assay
row,Binder,"IFNγ EC50 (ng/mL), reporter in HEK-Blue IFNγ cells"
1,B12,15.4 ng/mL
